Biological target: PdGH110B (GH110 family α-1,3-galactosidase from Pseudoalteromonas distincta U2A) (Pseudoalteromonas distincta U2A)
Assay: dynamic light scattering; PdGH110B in solution at protein concentrations of 0.18, 0.37 and 0.73 mg/ml; monomer to dimer

## PdGH110B (GH110 family α-1,3-galactosidase from Pseudoalteromonas distincta U2A) (enzyme)
  stoichiometry N: 2

Reference: paper PMC7939477
